This note sets out measurements from paper PMC4035259, “Structural Studies of an Anti-Inflammatory Lectin from Canavalia boliviana Seeds in Complex with Dimannosides” (PLoS ONE, 2014).

For data set [1], the target named is Concanavalin A (Canavalia ensiformis). Description: SAXS; in solution, 1, 5 and 10 mg/ml, buffers from pH 3 to pH 9 (JBS Solubility Kit); average molecular weight at each pH from I(0), BSA as size standard; dimer-tetramer equilibrium.
Data set [2] deals with the molecule itself. The data set is described as above.

One may read the stoichiometry N as the number of molecules, sites or subunits per partner or assembly.

Take Concanavalin A (natural protein): the stoichiometry N in data set [1] turned out to be 4.

B1: Canavalia boliviana lectin (natural protein, UniProt A0A023GPI8 1-237, looked up)
chain: ADTIVAVELDTYPNTDIGDPSYPHIGIDIKSVRSKKTAKWNMQNGKVGTAHIIYNSVGKRLSAVVSYPNGDSATVSYDVDLDNVLPEWVRVGLSATTGLYKETNTILSWSFTSKLKSNSTHETNALHFMFNQFSKDQKDLILQGDATTGRDGNLELTRVSSNGSPQGSSVGRALFYAPVHIWESSAVVASFDATFTFLIKSSDSHPADGIAFFISNIDSSIPSGSTGRLLGLFPDAN
notes: Lectin from Canavalia boliviana seeds, 237 amino acids (full-length alpha-chain, 25,572 Da); the preparation is a combination of the alpha-chain and its fragments, beta-chain (residues 1-118) and gamma-chain (residues 119-237); also called Cbol; CboL; source: purified from Canavalia boliviana seeds (according to Moura et al., 2009)
For B1, the “stoichiometry N” value in data set [2] stood at 4.
